Measured values published in patent publication CN113444180A (SHANGHAI SINOBAY BIO TECH CO LTD, dated 2021).

Tests used:
[1] = biological target: T1, AXL on CHO-AXL细胞 (human, UniProt P30530 26-894); experiment: flow cytometry on CHO-AXL cells, acidic condition pH6.0, reference CCT301-38
T1 construct: whole, on cells; the cell line itself is only called CHO-AXL
T1 sequence (looked up): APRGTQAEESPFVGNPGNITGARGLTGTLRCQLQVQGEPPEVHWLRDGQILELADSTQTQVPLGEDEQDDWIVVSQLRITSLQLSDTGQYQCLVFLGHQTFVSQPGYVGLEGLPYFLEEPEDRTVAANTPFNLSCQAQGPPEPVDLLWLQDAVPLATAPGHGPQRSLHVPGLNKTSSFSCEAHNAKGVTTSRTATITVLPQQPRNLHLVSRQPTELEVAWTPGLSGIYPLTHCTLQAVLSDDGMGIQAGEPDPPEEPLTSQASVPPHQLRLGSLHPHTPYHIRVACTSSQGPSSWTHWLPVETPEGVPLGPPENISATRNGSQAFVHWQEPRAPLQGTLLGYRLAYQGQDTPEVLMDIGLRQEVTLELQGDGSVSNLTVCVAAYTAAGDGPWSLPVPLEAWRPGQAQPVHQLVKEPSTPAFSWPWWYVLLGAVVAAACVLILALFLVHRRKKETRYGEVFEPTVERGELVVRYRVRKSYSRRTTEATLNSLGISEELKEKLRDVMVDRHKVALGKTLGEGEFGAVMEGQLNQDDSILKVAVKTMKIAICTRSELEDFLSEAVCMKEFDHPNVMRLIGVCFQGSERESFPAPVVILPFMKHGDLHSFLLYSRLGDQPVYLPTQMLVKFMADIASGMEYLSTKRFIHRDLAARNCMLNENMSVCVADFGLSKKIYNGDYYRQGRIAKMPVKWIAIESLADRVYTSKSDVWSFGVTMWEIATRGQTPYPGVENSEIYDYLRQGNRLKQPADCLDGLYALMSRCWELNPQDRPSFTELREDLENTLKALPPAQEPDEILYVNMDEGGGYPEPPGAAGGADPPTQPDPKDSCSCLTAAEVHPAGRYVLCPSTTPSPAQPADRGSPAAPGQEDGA

[2] = biological target: T1, AXL on CHO-AXL细胞; experiment: flow cytometry on CHO-AXL cells, pH6.0 against pH7.4

B1: Hu001-5抗体 (full-length human IgG1 kappa) (antibody, V domains shown)
VH: QVQLLESGGGVVQPGRSLRLSCAASGFTFSSYGMHWVRQAPGKGLEWVAVISYDGSNKYYADSVKGRFTISRDNSKNTLYLQMNSLRAEDTAVYYCAKDQVLAPVGGGLFDYWGQGTLVTVSA
VL: DIQLTQSPSSLSASVGDRVTITCRASQSISTYLNWYQQKPGKAPESLIFAASSLASGVPSRFSGSGSGTDFTLTISSLQPEDFATYYCQQSYSTPRTFGPGTKVEIK
平均荧光强度 (MFI), fold over positive control CCT301-38 [1]: ~4 倍 (fold) | 平均荧光强度 (MFI), acidic condition over neutral condition [2]: ~1.5 倍 (fold)

B2: Hu001-11抗体 (full-length human IgG1 kappa) (antibody, V domains shown)
VH: QVQLLESGGGVVQPGRSLRLSCAASGFTFSSYGMHWVRQAPGKGLEWVAVISYDGSNKYYADSVKGRFTISRDNSKNTLYLQMNSLRAEDTAVYYCAKYGSSGPYWYFDLWGQGTLVTVSA
VL: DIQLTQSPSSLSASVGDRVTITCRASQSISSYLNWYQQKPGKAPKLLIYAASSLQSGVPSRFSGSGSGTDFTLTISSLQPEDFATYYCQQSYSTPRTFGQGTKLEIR
平均荧光强度 (MFI), fold over positive control CCT301-38 [1]: ~4 倍 (fold) | 平均荧光强度 (MFI), acidic condition over neutral condition [2]: ~1.5 倍 (fold)
